Assay results taken from patent publication US20240254229A1 (Molecular Partners, published 2024).
Values joined by “and” are separate entries in the source; they are usually repeats but may differ in a detail not shown here. Identical values can stand only once. Values belong to the binder of their own block, whether it stands above or below them.

Experiments:
[1] = target: T1, hCD33 (recombinant, construct not stated) (human, UniProt P20138 18-259, limits assumed); test: switchSENSE, hCD33 and hCD123 co-immobilised 2:1; panel headed CD33
T1 construct: also called CD33 (Ligand 1)
Method: (§1) The designed ankyrin repeat proteins: DARPin® protein #20, DARPin® protein #21, DARPin® protein #22, DARPin® protein #27, DARPin® protein #40 and DARPin® protein #41 were tested in a concentration of 0.16 and 64 nM (in a buffer PE140 containing 10 mM Na2HPO4/NaH2PO4, 140 mM NaCl, 0.05% Tween20, 50 μM EDTA, 50 μM EGTA) for binding against two ligands hCD33 and hCD123, which both were immobilized simultaneously to DNA nanolevers, on the surface, at a pre-defined ratio (2:1, CD33:CD123) and 10% density (100:50) on an ADP-48-1-0 chip, where 100% density 1000 receptors/μm2 (preincubated R1-B48-CD123 and G1-A48-CD33 (100 nM) diluted in cNL-48 (dark)). Briefly the following steps were performed: [0724] Conjugation. Amine coupling of the two ligands (CD33 and CD123) to the DNA nanolever (A48, B48, respectively) and purification of the conjugates using the proFIRE® solution (Dynamic Biosensors GmbH) at 25° C. [0725] Evaluation of all the combined affinity and avidity of all different proteins to both ligands attached on the surface of an ADP chip using a DRX+ instrument (dynamic BIOSENSORS). [0726] Statistical analysis (repeatability from 2 to 5 times) including regeneration of the chip surface every concentration analyzed and long dissociation times and data were fitted using a bi-exponential global fit.

[2] = target: T2, hCD123 (recombinant, construct not stated) (human, UniProt P26951 19-305, limits assumed); test: switchSENSE, CD33 and CD123 on one chip; monophasic; CD123-only control, monophasic
T2 construct: also called CD123 (Ligand 2)
T2 sequence (looked up): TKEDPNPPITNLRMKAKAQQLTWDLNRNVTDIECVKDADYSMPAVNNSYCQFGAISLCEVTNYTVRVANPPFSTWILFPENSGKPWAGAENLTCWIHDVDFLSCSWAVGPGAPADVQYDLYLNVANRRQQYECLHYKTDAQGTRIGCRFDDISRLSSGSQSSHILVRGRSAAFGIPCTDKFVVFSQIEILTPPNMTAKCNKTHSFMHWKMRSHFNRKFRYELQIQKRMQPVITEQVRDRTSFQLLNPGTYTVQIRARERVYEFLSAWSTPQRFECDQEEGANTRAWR

[3] = target: T2, hCD123 (recombinant, construct not …); test: switchSENSE, hCD33 and hCD123 co-immobilised 2:1; panel headed CD123, column KD1; KD2 printed N.A.
Method: as §1

[4] = target: T1, hCD33 (recombinant, construct not …); test: switchSENSE, CD33 and CD123 on one chip
Method: as §1

[5] = target: T2, hCD123 (recombinant, construct not …); test: switchSENSE, CD33 and CD123 on one chip
Method: as §1

[6] = target: T1, hCD33 (recombinant, construct not …); test: switchSENSE; KD,1 (affinity); KD,1 (affinity), CD33
Method: as §1

[7] = target: T1, hCD33 (recombinant, construct not …); test: switchSENSE, CD33 and CD123 on one chip; kon to CD33
Method: as §1

[8] = target: T2, hCD123 (recombinant, construct not …); test: switchSENSE; KD,1 (affinity); KD,1 (affinity), CD123
Method: as §1

[9] = target: T2, hCD123 (recombinant, construct not …); test: switchSENSE, CD33 and CD123 on one chip; kon to CD123
Method: as §1

[10] = target: T3, hCD33 and hCD123 immobilized simultaneously on one switchSENSE chip (ratio 2:1, CD33:CD123) (human, UniProt P20138 18-259; P26951 19-305, limits assumed); test: switchSENSE, CD33 and CD123 on one chip; slow phase (avidity)
T3 construct: Not a complex: two separate ligands on one surface; used for avidity values and for off-rates; also called both ligands; both targets attached to the surface of the chip
Method: as §1

[11] = target: T3, hCD33 and hCD123 immobilized …; test: switchSENSE, CD33 and CD123 on one chip; fast phase (affinity)
Method: as §1

[12] = target: T3, hCD33 and hCD123 immobilized …; test: switchSENSE, CD33 and CD123 on one chip; slow phase (avidity); slow phase (avidity)
[13] = target: T3, hCD33 and hCD123 immobilized …; test: switchSENSE, CD33 and CD123 on one chip; fast phase (affinity); fast phase (affinity)
Method: as §1

[14] = target: T1, hCD33 (recombinant, construct not …); test: switchSENSE, hCD33 and hCD123 co-immobilised 2:1; panel headed CD33, column KD1 (affinity)
Method: as §1

[15] = target: T2, hCD123 (recombinant, construct not …); test: switchSENSE, hCD33 and hCD123 co-immobilised 2:1; panel headed CD123, column KD1 (affinity)
Method: as §1

[16] = target: T3, hCD33 and hCD123 immobilized …; test: switchSENSE, hCD33 and hCD123 co-immobilised 2:1; panel headed CD33, column KD2 (avidity, simultaneous binding of CD33 and CD123 per paragraph 694)
Method: as §1

[17] = target: T3, hCD33 and hCD123 immobilized …; test: switchSENSE, hCD33 and hCD123 co-immobilised 2:1; panel headed CD123, column KD2 (avidity, simultaneous binding of CD33 and CD123 per paragraph 694)
Method: as §1

[18] = target: T2, hCD123 (recombinant, construct not …); test: switchSENSE, hCD33 and hCD123 co-immobilised 2:1; panel headed CD123
Method: as §1

[19] = target: T1, hCD33 (recombinant, construct not …); test: switchSENSE, CD33 and CD123 on one chip; monophasic; CD33-only control, monophasic
[20] = target: T1, hCD33 (recombinant, construct not …); test: switchSENSE, hCD33 and hCD123 co-immobilised 2:1; panel headed CD33, column KD1; KD2 printed N.A.
Method: as §1

[21] = target: T4, biotinylated extracellular domain of human CD123 (SEQ ID NO: 88), Fc and Avi tagged (human, UniProt P26951 19-303, biotinylated with BirA-GST (Avi tag)); test: ribosome display selection, crude extract HTRF
T4 construct: also called hCD123
T4 sequence: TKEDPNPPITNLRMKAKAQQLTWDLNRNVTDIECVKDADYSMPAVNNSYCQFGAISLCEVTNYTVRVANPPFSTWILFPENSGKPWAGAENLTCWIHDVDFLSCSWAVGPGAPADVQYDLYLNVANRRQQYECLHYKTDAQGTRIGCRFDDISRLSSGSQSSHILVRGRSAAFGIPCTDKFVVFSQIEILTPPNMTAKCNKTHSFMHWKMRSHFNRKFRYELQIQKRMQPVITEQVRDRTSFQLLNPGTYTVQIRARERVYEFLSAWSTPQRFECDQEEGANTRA

T1 sequence (P20138 18-259 limits assumed): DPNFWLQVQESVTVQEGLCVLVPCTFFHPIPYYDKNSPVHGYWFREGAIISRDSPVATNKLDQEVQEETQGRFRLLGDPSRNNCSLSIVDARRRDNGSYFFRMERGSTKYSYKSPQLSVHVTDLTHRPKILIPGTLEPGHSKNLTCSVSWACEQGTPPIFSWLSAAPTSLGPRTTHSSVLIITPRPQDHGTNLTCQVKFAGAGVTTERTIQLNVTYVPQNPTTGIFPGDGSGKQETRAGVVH
T3 sequence (P20138 18-259 limits assumed, one chain of several): as the sequence (P20138 18-259 limits assumed) above

B1: DARPin® protein #41 (designed binder)
chain: DLGKKLLEAALEGQLDEVRELLKAGADVNAKDQEGYTPLHLAAALGHLEIVEVLLKAGADVNAKDSIGRTPLHLAAYKGHLEIVEVLLKAGADVNAQDLLGETPADLAAEQGHQDIAEVLQKAAGSPTPTPTTPTPTPTTPTPTPTGSDLGKKLLEAARAGQDDEVRELLKAGADVNAKDKDGYTPLHLAAREGHLEIVEVLLKAGADVNAKDKDGYTPLHLAAREGHLEIVEVLLKAGADVNAQDKSGKTPADLAADAGHEDIAEVLQKAAGSPTPTPTTPTPTPTTPTPTPTGSDLGQKLLEAAWAGQDDEVRELLKAGADVNAKNSRGWTPLHTAAQTGHLEIFEVLLKAGADVNAKDDKGVTPLHLAAALGHLEIVEVLLKAGADVNAQDSWGTTPADLAAKYGHEDIAEVLQKAA
notes: also called αCD123-Ni2C-αCD3
- binding result [1]: no binding
- koff [2]: 0.06 s⁻¹
- Kd [3]: 4.2 nM

B4: DARPin® protein #35 (designed binder)
chain: DLGKKLLEAALEGQDDEVRELLKAGADVNAKDQEGYTPLHLAAALGHLEIVEVLLKAGADVNAKDSIGRTPLHLAAYKGHLEIVEVLLKAGADVNAQDLLGETPADLAAEQGHEDIAEVLQKAA
notes: CD123-specific domain; screened as crude extract
- binding result [21]: binds

Next, values leading:

- kon [4]: ~1e+06 M⁻¹ s⁻¹
- kon [5]: ~1e+07 M⁻¹ s⁻¹
- Kd [6]: ~17.6 nM
- kon [7]: 1.3e+06 M⁻¹ s⁻¹
- Kd [8]: ~4.9 nM
- kon [9]: 7e+06 M⁻¹ s⁻¹
- koff [10]: ~0.001 s⁻¹ and 0.001 s⁻¹
- koff [11]: ~0.01 s⁻¹ and 0.02 s⁻¹
- koff [12]: 0.0015 s⁻¹
- koff [13]: 0.03 s⁻¹
- Kd [14]: 18 nM
- Kd [15]: 4.9 nM
- Kd [16]: 0.7 nM
- Kd [17]: 0.29 nM
B2: DARPin® protein #20 (designed binder)
chain: DLGKKLLEAARAGQDDEVRILMANGADVNALDWLGHTPLHLAAYEGHLEIVEVLLKNGADVNAIDDNNGFTPLHLAAIDGHLEIVEVLLKNGADVNAQDKFGKTAFDISIDNGNEDLAEILQKAAGSPTPTPTTPTPTPTTPTPTPTGSDLGDKLLLAATSGQDDEVRILLAAGADVNAKDYDGDTPLHLAADEGHLEIVEVLLKAGADVNAKDYSGSTPLHAAAAYGHLEIVEVLLKAGADVNAQDVFGYTPADLAAYVGHEDIAEVLQKAAGSPTPTPTTPTPTPTTPTPTPTGSDLGQKLLEAAWAGQDDEVRILLAAGADVNAKNSRGWTPLHTAAQTGHLEIFEVLLKAGADVNAKNDKRVTPLHLAAALGHLEIVEVLLKAGADVNARDSWGTTPADLAAKYGHGDIAEVLQKLA
notes: CD123-CD33-CD3; also called αCD123-αCD33-αCD3_1

- binding result [18]: no binding
- koff [19]: 0.01 s⁻¹
- Kd [20]: 7.1 nM
B3: DARPin® protein #40 (designed binder)
chain: DLGKKLLEAARAGQDDEVRELLKAGADVNAKDKDGYTPLHLAAREGHLEIVEVLLKAGADVNAKDKDGYTPLHLAAREGHLEIVEVLLKAGADVNAQDKSGKTPADLAADAGHEDIAEVLQKAAGSPTPTPTTPTPTPTTPTPTPTGSDLGVKLLLAASRGQLDEVRILLKAGADVNAKDIDEGYTPLHIAAYYGHLEIVEVLLKAGADVNAKDRYGKTPLHLAAISGHLEIVEVLLKAGADVNAQDDKGDTPADLAADYGHQDIAEVLQKAAGSPTPTPTTPTPTPTTPTPTPTGSDLGQKLLEAAWAGQDDEVRELLKAGADVNAKNSRGWTPLHTAAQTGHLEIFEVLLKAGADVNAKDDKGVTPLHLAAALGHLEIVEVLLKAGADVNAQDSWGTTPADLAAKYGHEDIAEVLQKAA
notes: also called Ni2C-αCD33-αCD3
